Where two headings read alike, the source gives them in different places.
What was measured:
Experiment in all cases: cross-linking
[1] = target: Z protein with N-epsilon-fluoroacetyllysine at residue 24, fused to maltose binding protein
[2] = target: Z protein with N-epsilon-fluoroacetyllysine at residue 24, fused to maltose binding protein; remark: listed apart in the source
[3] = target: Z protein with N-epsilon-fluoroacetyllysine at residue 6, fused to maltose binding protein
[4] = target: Z protein with N-epsilon-fluoroacetyllysine at residue 6, fused to maltose binding protein; remark: listed apart in the source
[5] = target: Z protein with Cys at residue 6, fused to maltose binding protein
[6] = target: Z protein with Cys at residue 6, fused to maltose binding protein; remark: listed apart in the source

Substance: Zspa Affibody (Afb) with Cys at position 7 (designed binder)
- crosslinking yield [1]: 34%
- crosslinking yield [2]: 12%

Substance: Zspa Affibody (Afb) with Cys at position 36 (designed binder)
- crosslinking yield [3]: 64%
- crosslinking yield [4]: 24%

Substance: Zspa Affibody (Afb) with N-epsilon-fluoroacetyllysine at position 36 (designed binder)
- crosslinking efficiency [5]: 88%
- crosslinking yield [6]: 33%
